The values below come from paper PMC10907630, “Phosphorylation regulates tau’s phase separation behavior and interactions with chromatin”.

The target in series [1] is T1, tau 1N4R (UniProt P10636-7 1-412). In words: EMSA; 10 mM NaCl; Hill fit; EMSA: 20 nM DNA or nucleosome, 20 mM HEPES pH 7.2, 10 mM NaCl (or 150), 0.5 mM TCEP, 0.1% Tween-20, 5% sucrose, room temperature 20 min; FA: 10 nM DNA, same buffer with 10 mM NaCl, 0.01% NP-40 substitute, room temperature 10 min. The conditions noted are these: protein: recombinant; tags: none stated; label: 5' 6-FAM on strand 1; blunt.

Series [2] deals with T1, tau 1N4R. The experiment in a line: fluorescence anisotropy; 10 mM NaCl; Hill fit; EMSA: 20 nM DNA or nucleosome, 20 mM HEPES pH 7.2, 10 mM NaCl (or 150), 0.5 mM TCEP, 0.1% Tween-20, 5% sucrose, room temperature 20 min; FA: 10 nM DNA, same buffer with 10 mM NaCl, 0.01% NP-40 substitute, room temperature 10 min. Particulars: protein: recombinant; tags: none stated; label: 5' 6-FAM on strand 1; blunt. In general terms: Polarisation of emitted light reports the rotation of a fluorescent probe.

T1 sequence (P10636 other isoform, or with tags, fused parts or gaps): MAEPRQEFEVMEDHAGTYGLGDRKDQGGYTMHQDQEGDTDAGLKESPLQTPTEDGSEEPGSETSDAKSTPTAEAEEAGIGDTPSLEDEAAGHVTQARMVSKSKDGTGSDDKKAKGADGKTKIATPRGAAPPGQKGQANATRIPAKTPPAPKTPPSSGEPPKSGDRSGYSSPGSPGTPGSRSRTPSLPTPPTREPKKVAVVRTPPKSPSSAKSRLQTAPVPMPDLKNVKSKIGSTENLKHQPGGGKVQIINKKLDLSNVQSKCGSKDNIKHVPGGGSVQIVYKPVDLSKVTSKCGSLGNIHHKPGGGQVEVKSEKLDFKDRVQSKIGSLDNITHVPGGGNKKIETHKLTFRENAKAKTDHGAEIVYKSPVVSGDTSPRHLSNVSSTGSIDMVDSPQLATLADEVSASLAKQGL

B1: 22 bp DNA (dsDNA)
DNA 1: ATTTAGAAATGTCCACTGTAGG
DNA 2: CCTACAGTGGACATTTCTAAAT
The term Kd denotes the constant that tells how readily two partners part at equilibrium. Turning to B1, the Kd is 112 ± 3.7 nM with tau 1N4R [1] and 6.3 ± 0.5 nM with tau 1N4R [2].
